# Target: the molecule itself
# Test: cryo-EM structure; fibrils extracted from the frontal cortex of case 1 of PDD, pretreated with pronase for 30 min; helical reconstruction at 3.5 Å
protein,measurement,value
"TMEM106B fibril (Type 1) extracted from the frontal cortex of case 1 of PDD (domain or fragment, human (endogenous in brain tissue), UniProt Q9NUM4 120-254, looked up, four potentially glycosylated Asn residues, Transmembrane protein 106B (TMEM106B), human, fibril core of residues 120-254 (luminal domain); Amyloid fibril with many stacked copies of the chain; the atomic model was built as three layers; Residues 120-254 are the ordered core seen by cryo-EM; also called Transmembrane protein 106B fibril; brain-extracted TMEM106B fibril; source: extracted from postmortem human brain (frontal lobe, case 1 of …)) SIDVKYIGVKSAYVSYDVQKRTIYLNITNTLNITNNNYYSVEVENITAQVQFSKTVIGKARLNNITIIGPLDMKQIDYTVPTVIAEEMSYMYDFCTLISIKVHNIVLMMQVTVTTTYFGHSEQISQERYQYVDCG",binding result,binds
